# Data as given in patent WO2020259667A1 (dated 2020).
# T1: human OX40-His protein (Sino Biological 10481-H08H) (human, UniProt P43489 29-216)
# T1 construct: Bought protein, used as the analyte in Biacore; not shown: His tag
# T1 sequence (looked up): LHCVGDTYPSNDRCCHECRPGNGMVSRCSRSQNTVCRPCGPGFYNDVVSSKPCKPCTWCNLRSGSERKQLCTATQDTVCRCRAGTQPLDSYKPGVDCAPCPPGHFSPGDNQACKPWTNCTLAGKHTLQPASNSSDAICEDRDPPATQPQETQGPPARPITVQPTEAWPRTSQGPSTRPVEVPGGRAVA
# T2: human OX40-Fc, biotin-labelled (OX40 Leu 29-Ala 216, Accession NP_003318, fused with Fc); Acro Biosystems … (human, UniProt P43489 29-216, labelled with biotin (sites not given))
# T2 construct: range 29-216; Bought from Acro Biosystems and expressed in HEK293; also called human Bio-OX40-FC; not shown: Fc tag of the bought protein
# T2 sequence (looked up): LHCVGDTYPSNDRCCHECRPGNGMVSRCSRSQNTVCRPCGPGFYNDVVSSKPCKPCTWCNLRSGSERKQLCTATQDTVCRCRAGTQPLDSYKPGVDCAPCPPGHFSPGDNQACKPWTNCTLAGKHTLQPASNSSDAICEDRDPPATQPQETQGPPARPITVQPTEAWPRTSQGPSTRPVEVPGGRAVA
# T3: human OX40 on Jurkat-NF-Kb luc-hOX40 cells (human, UniProt P43489 29-277)
# T3 sequence (looked up): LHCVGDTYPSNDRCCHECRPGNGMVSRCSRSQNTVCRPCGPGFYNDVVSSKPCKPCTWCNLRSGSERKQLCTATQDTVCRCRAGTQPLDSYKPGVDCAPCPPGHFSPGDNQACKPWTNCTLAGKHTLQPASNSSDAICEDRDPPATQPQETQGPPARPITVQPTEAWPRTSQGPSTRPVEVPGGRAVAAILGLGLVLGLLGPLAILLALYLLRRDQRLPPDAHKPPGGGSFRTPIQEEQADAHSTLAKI
# What was measured:
# [1] = target: human OX40 on Jurkat-NF-Kb luc-hOX40 cells (human) (UniProt P43489); assay: cell-based or functional assay
# [2] = target: T1, human OX40-His protein (Sino Biological …); assay: SPR, Biacore T200; antibody amine-coupled to a CM5 chip, human OX40-His as analyte, 1:1 Langmuir model
# [3] = target: T2, human OX40-Fc, biotin-labelled (OX40 …); assay: blocking ELISA: OX40 ligand coated on the plate, serially diluted 2G3 pre-incubated with biotinylated human OX40-Fc, SA-HRP detection; competitor OX40L
# [4] = target: T3, human OX40 on Jurkat-NF-Kb luc-hOX40 …; assay: cell-based or functional assay
"EC50(nM), luciferase reporter gene (RLU) in Jurkat-NF-Kb luc-hOX40 cells mixed with Raji cells on an anti-CD3 coated plate [1]",Kd [2],koff [2],kon [2],IC50 [3],"EC50(nM), luciferase reporter gene (RLU) in Jurkat-NF-Kb luc-hOX40 cells mixed with Raji cells on an anti-CD3 coated plate [4]",Binder
0.637 nM,–,–,–,–,–,"chimeric antibody Ch2G3 (m2G3 variable regions with human IgG1 and human Kappa constant regions) (antibody, from another filing, V domains shown) VH: QVQLKESGPGLVASSQSLSITCTVSGFSLSRYSVHWVRQPPGKGLEWLGMIWDGGNTDYNSALKSRLSISKDNSKSQVFLKMNSLQTDDTAMYYCARNPLYFSYAMDYWGQGTSVTVSS VL: DIQMTQSTSSLSASLGDRVTISCRASQDISNYLNWYQQKPDGTVKLLIIYTSRLQSGVPSRFSGSGSGTDYSLTISNLEQEDIATYFCQQVNTFPFTFGSGTKLEIK"
–,4.63 nM,0.00202 s⁻¹,437000 M⁻¹ s⁻¹,1.88 nM,2.29 nM,"2G3 (humanized anti-OX40 antibody, hu2G3 VH1.1 + hu2G3 VL1) (antibody, human IgG1, kappa, V domains shown, Format is IgG1/kappa; also called drug A; humanized 2G3 antibody) VH: QVQLQESGPGLVKPSETLSLTCTVSGYSISRYSVHWVRQPPGKGLEWIGMIWDGGNTDYNAALKSRFTISRDNAKNTLYLQMNSLRAEDTAVYYCARNPLYFSYAMDYWGQGTLVTVSS VL: DIQMTQSPSSLSASVGDRVTITCRASQDISNYLNWYQQKPDQSPKLLIIYTSRLQSGVPSRFSGSGSGTDYTLTISSLQPEDFATYYCQQVNTFPFTFGQGTKLEIKR"
